Measured values reported in FireProtDB (doi:10.1021/bi00066a003).
Several values for one entry are separate records, joined by “and”; a condition that tells them apart may be missing. Identical values can stand only once.

B1: Phosphoglycerate kinase, P18912 (parent)
chain: MNKKTIRDVDVRGKRVFCRVDFNVPMEQGAITDDTRIRAALPTIRYLIEHGAKVILASHLGRPKGKVVEELRLDAVAKRLGELLERPVAKTNEAVGDEVKAAVDRLNEGDVLLLENVRFYPGEEKNDPELAKAFAELADLYVNDAFGAAHRAHASTEGIAHYLPAVAGFLMEKELEVLGKALSNPDRPFTAIIGGAKVKDKIGVIDNLLEKVDNLIIGGGLAYTFVKALGHDVGKSLLEEDKIELAKSFMEKAKEKGVRFYMPVDVVVADRFANDANTKVVPIDAIPADWSALDIGPKTRELYRDVIRESKLVVWNGPMGVFEMDAFAHGTKAIAEALAEALDTYSVIGGGDSAAAVEKFGLADKMDHISTGGGASLEFMEGKQLPGVVALEDK

Variants of: B1
Details: Geobacillus stearothermophilus, pH 7.5, 25 °C, Fluorescence, TEA 50 mM, reversible: yes, structure 1PHP, whole UniProt chain shown

Variant | unfolding free energy (GdnHCl, transition: 4) | unfolding free energy (Urea, transition: 4) | unfolding free energy (GdnHCl, transition: 3) | unfolding free energy (Urea, transition: 3) [kcal/mol]
MNKKTIRDVDVRGKRVFCRVDFNVPMEQGAITDDTRIRAALPTIRYLIEHGAKVILASHLGRPKGKVVEELRLDAVAKRLGELLERPVAKTNEAVGDEVKAAVDRLNEGDVLLLENVRFYPGEEKNDPELAKAFAELADLYVNDAFGAAHRAHASTEGIAHYLPAVAGFLMEKELEVLGKALSNPDRPFTAIIGGAKVKDKIGVIDNLLEKVDNLIIGGGLAYTFVKALGHDVGKSLLEEDKIELAKSFMEKAKEKGVRFYMPVDVVVADRFANDANTKVVPIDAIPADYSALDIGPKTRELYRDVIRESKLVVYNGPMGVFEMDAFAHGTKAIAEALAEALDTYSVIGGGDSAAAVEKFGLADKMDHISTGGGASLEWMEGKQLPGVVALEDK [W290Y W315Y F379W] | 4.95 kcal/mol and 10.8 kcal/mol and 8.93 kcal/mol | 3.77 kcal/mol and 10.8 kcal/mol and 8.15 kcal/mol | – | –
MNKKTIRDVDVRGKRVFCRVDFNVPMEQGAITDDTRIRAALPTIRYLIEHGAKVILASHLGRPKGKVVEELRLDAVAKRLGELLERPVAKTNEAVGDEVKAAVDRLNEGDVLLLENVRFYPGEEKNDPELAKAFAELADLYVNDAFGAAHRAHASTEGIAHYLPAVAGFLMEKELEVLGKALSNPDRPFTAIIGGAKVKDKIGVIDNLLEKVDNLIIGGGLAYTFVKALGHDVGKSLLEEDKIELAKSFMEKAKEKGVRFYMPVDVVVADRFANDANTKVVPIDAIPADYSALDIGPKTRELYRDVIRESKLVVWNGPMGVFEMDAFAHGTKAIAEALAEALDTYSVIGGGDSAAAVEKFGLADKMDHISTGGGASLEFMEGKQLPGVVALEDK [W290Y] | – | – | 11.4 kcal/mol and 8.2 kcal/mol | 8.15
